Measured values taken from patent US20100173362A1 (published 2010).

How the values were obtained:
[1] = biological target: T1, recombinant human HGF (R&D Systems, Catalog No. 294-HGN-025) (human, UniProt P14210 32-728); assay: cell-based or functional assay
[2] = biological target: T1, recombinant human HGF (R&D Systems, …); assay: SPR (BIAcore), KD at 25 C against KD at 37 C; upper end fits 2B8 in Table 19
Procedure: (§1) The antibodies were captured in an individual flow cell at a flow rate of 10 μL/min. Injection time was variable for each antibody to yield approximately 20 RU of antibody captured for each cycle. […] The dissociation phase was monitored for 15 or 90 minutes, depending on concentration. The surface of mouse anti-human immunoglobulins sensor chips was then regenerated with 10 mM Glycine-HCl, pH 2.2 (BIAcore, Catalog No. BR-1003-54) injected for 3 minutes at a flow rate of 60 μL/min before another cycle was initiated. The surface of rabbit anti-mouse immunoglobulins sensor chips was regenerated with 10 mM Glycine-HCl, pH 1.7 (BIAcore, Catalog No. BR-1003-54) injected for 3 minutes at a flow rate of 60 μL/min before another cycle was initiated.

[3] = biological target: T1, recombinant human HGF (R&D Systems, …); assay: SPR (BIAcore), KD at 25 C against KD at 37 C; lower end fits sh2B8-9 in Table 19
Procedure: as §1

T1 sequence (P14210 32-728 limits assumed): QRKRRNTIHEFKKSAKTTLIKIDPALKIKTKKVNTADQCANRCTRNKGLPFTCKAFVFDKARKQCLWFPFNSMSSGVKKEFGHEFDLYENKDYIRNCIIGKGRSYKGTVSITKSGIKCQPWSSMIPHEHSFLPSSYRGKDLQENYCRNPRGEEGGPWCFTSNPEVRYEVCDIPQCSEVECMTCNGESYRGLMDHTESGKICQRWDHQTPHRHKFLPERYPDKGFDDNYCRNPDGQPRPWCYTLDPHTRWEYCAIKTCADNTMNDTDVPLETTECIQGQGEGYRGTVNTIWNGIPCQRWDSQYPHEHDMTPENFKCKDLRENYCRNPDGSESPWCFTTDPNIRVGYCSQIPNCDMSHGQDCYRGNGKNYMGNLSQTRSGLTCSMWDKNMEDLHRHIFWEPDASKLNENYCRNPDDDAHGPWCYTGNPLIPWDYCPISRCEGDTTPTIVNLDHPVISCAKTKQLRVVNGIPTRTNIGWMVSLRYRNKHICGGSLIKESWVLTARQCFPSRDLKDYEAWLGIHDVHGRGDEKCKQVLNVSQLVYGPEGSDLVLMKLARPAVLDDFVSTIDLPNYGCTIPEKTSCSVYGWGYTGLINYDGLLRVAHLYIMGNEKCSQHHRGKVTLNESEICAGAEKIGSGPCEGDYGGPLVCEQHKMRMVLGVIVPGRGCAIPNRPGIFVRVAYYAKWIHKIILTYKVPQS

B1: 2B8 (antibody, mouse IgG1, kappa)
heavy: QVQLQQPGAELVKPGTSVKLSCKASGYTFTTYWMHWVNQRPGQGLEWIGEINPTNGHTNYNEKFKSKATLTVDKSSSTAYMQLSSLTSEDSAVYYCARNYVGSIFDYWGQGTTLTVSSAKTTPPSVYPLAPGSAAQTNSMVTLGCLVKGYFPEPVTVTWNSGSLSSGVHTFPAVLQSDLYTLSSSVTVPSSTWPSETVTCNVAHPASSTKVDKKIVPRDCGCKPCICTVPEVSSVFIFPPKPKDVLTITLTPKVTCVVVDISKDDPEVQFSWFVDDVEVHTAQTQPREEQFNSTFRSVSELPIMHQDWLNGKEFKCRVNSAAFPAPIEKTISKTKGRPKAPQVYTIPPPKEQMAKDKVSLTCMITDFFPEDITVEWQWNGQPAENYKNTQPIMDTDGSYFVYSKLNVQKSNWEAGNTFTCSVLHEGLHNHHTEKSLSHSPGK
light: NIVMTQSPKSMSMSVGERVTLSCKASENVVSYVSWYQQKPAQSPKLLIYGASNRNTGVPDRFTGSGSATDFTLTISSVRAEDLADYHCGQSYNYPYTFGGGTRLEIKRADAAPTVSIFPPSSEQLTSGGASVVCFLNNFYPKDINVKWKIDGSERQNGVLNSWTDQDSKDSTYSMSSTLTLTKDEYERHNSYTCEATHKTSTSPIVKSFNRNEC
notes: also called murine 2B8; mouse 2B8
HGF-stimulated c-Met phosphorylation in PC-3 cells, Average of Two Trials [1]: 0.91 nM
fold smaller KD at 37° C. than at 25° C. [2]: 1.4 to 3 fold

B2: sh2B8-9 (G1m(3)) (antibody, human IgG1, kappa)
heavy: not shown
light: DIQMTQSPSSLSASVGDRVTITCKASENVVSYVSWYQQKPGKAPKLLIYGASNRNTGVPSRFSGSGSGTDFTLTISSLQPEDFATYYCGQSYNYPYTFGQGTKLEIKRTVAAPSVFIFPPSDEQLKSGTASVVCLLNNFYPREAKVQWKVDNALQSGNSQESVTEQDSKDSTYSLSSTLTLSKADYEKHKVYACEVTHQGLSSPVTKSFNRGEC
notes: superhumanized 2B8, human IgG1 G1m(3) allotype (allele 2), kappa Km(3) (allele 2), made in 293T cells
fold smaller KD at 37° C. than at 25° C. [3]: 1.4 to 3 fold
HGF-stimulated c-Met phosphorylation in PC-3 cells, Average of Two Trials [1]: 0.93 nM

B3: HE2B8-1 (antibody, human IgG1, kappa, V domains shown)
VH: QVQLVQPGAEVVKPGTSVKLSCKASGYTFTTYWMHWVNQAPGQGLEWIGEINPTNGHTNYNEKFKGKATLTVDKSTSTAYMELSSLRSEDTAVYYCARNYVGSIFDYWGQGTLLTVSS
VL: DIVMTQSPDSMAMSVGERVTLNCKASENVVSYVSWYQQKPGQSPKLLIYGASNRNTGVPDRFSGSGSATDFTLTISSVQAEDVADYHCGQSYNYPYTFGQGTKLEIKR
HGF-stimulated c-Met phosphorylation in PC-3 cells, Average of Two Trials [1]: 0.8 nM

B4: HE2B8-2 (antibody, human IgG1, kappa, V domains shown)
VH: QVQLVQPGAEVVKPGTSVKLSCKASGYTFTTYWMHWVNQAPGQGLEWIGEINPTNGHTNYNEKFKGKATLTVDKSTSTAYMELSSLRSEDTAVYYCARNYVGSIFDYWGQGTLLTVSS
VL: DIVMTQSPDSLAMSLGERVTLNCKASENVVSYVSWYQQKPGQSPKLLIYGASNRESGVPDRFSGSGSATDFTLTISSVQAEDVADYHCGQSYNYPYTFGQGTKLEIKR
HGF-stimulated c-Met phosphorylation in PC-3 cells, Average of Two Trials [1]: 0.88 nM

B5: HE2B8-3 (antibody, human IgG1, kappa, V domains shown)
VH: QVQLVQPGAEVKKPGTSVKLSCKASGYTFTTYWMHWVRQAPGQGLEWIGEINPTNGHTNYNQKFQGRATLTVDKSTSTAYMELSSLRSEDTAVYYCARNYVGSIFDYWGQGTLLTVSS
VL: DIVMTQSPDSMAMSVGERVTLNCKASENVVSYVSWYQQKPGQSPKLLIYGASNRNTGVPDRFSGSGSATDFTLTISSVQAEDVADYHCGQSYNYPYTFGQGTKLEIKR
HGF-stimulated c-Met phosphorylation in PC-3 cells, Average of Two Trials [1]: 0.79 nM

B6: HE2B8-4 (antibody, human IgG1, kappa, V domains shown)
VH: QVQLVQPGAEVKKPGTSVKLSCKASGYTFTTYWMHWVRQAPGQGLEWIGEINPTNGHTNYNQKFQGRATLTVDKSTSTAYMELSSLRSEDTAVYYCARNYVGSIFDYWGQGTLLTVSS
VL: DIVMTQSPDSLAMSLGERVTLNCKASENVVSYVSWYQQKPGQSPKLLIYGASNRESGVPDRFSGSGSATDFTLTISSVQAEDVADYHCGQSYNYPYTFGQGTKLEIKR
HGF-stimulated c-Met phosphorylation in PC-3 cells, Average of Two Trials [1]: 0.75 nM
